B1: SMARCE1 (parent)
chain: YHNSPAYLAYINAKSRAEAALEEE

Variants of: B1
Experiment: protein stability index of a GFP-peptide fusion (GPS, HEK-293T) (PSI 1-6); higher = more stable
Conditions: c terminus: a fixed tail appended
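Also: lentivirally expressed fusions sorted by FACS into six bins by GFP to DsRed ratio, PSI derived from sequencing read proportions per bin multiplied by bin number.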

Protein stability index, by site and new letter:
N12: W 2.09, C 2.02, P 3.69, K 2.41, V 2.44, S 1.58, Y 2.23, Q 2.25, G 1.65, I 1.64, D 2.26, F 2.28, E 1.93, T 2.06
E24: F 2.59, G 1.95, S 3.47, M 2.55, P 1.45, V 2.19, W 1.63, K 2.91, D 2.3, Q 3.45, L 1.56, T 2.17, R 2.71, I 1.88
P5: N 2.56, H 3.81, I 2.05, Q 4.02, E 1.82, Y 2.31, C 3.56, S 2.67, R 2.99, T 2.46, L 2.92
E23: T 3.01, S 1.54, G 3.34, M 1.52, Q 1.59, K 2.05, R 1.82, P 2.58, H 2.13, W 1.81, I 2.79
N3: F 1.81, V 2.03, Q 1.57, Y 2.87, I 2.08, G 2.28, P 1.55, L 1.95, M 2.06, H 1.69, S 1.81, W 1.89
S4: N 2.23, Q 3.3, E 2.89, Y 2.09, W 2.41, T 2.6, A 3.12, I 2, F 2.04, L 2.35, C 1.56, M 3.39, V 2.44, K 1.77
A13: V 2.33, Y 2.13, C 3.05, H 2.88, D 1.94, L 2.21, G 2.27, R 2.51, P 2.63, T 2.28, E 1.94, Q 2.83
Y1: D 5.28, E 5.26, H 4.6, P 5.16, K 4.96, A 5.18, M 5.08, S 4.85, T 5.26, W 4.52, R 4.86
S15: G 2.11, I 2.25, M 2.14, W 2.08, R 2.04, L 2.42, F 2.06, K 2.31, Q 2.17, T 2, E 2.29, D 2.06
H2: T 1.7, C 2.12, A 2.37, Y 4.42, D 4.99, Q 1.7, S 2.5, L 2.09, N 3.77, R 4.83, F 2.79, G 2.65, P 1.84, K 5.07, E 4.87
A19: I 2.05, L 2.49, W 2.48, P 1.92, D 2.33, E 2.69, M 2.24, K 2.05, C 2.84, V 2.58, R 2.59
A20: M 1.32, S 1.84, G 3.01, D 2.97, H 2.51, Q 1.79, N 2.42, P 2.66, I 2.25, F 1.69, T 1.61, R 2.89, Y 3.29
E22: N 2.44, D 2.21, K 1.86, H 2.83, R 2.25, F 2.04, A 2.7, C 2.17, I 2.59, P 2.73, L 4.41
A9: R 1.96, H 2.51, Y 1.74, M 1.38, V 2.29, L 1.5
